According to patent US20090088386A1 (KAGOSHIMA UNIVERSITY, published 2009):
Changes are numbered by the printed parent chain. No end group written: not given here.

How the values were obtained:
[1] = target: T1, pepB7-C15 (pepD1-C5, C7, C20) peptide phage clone; assay: biopanning on coated B7 scFv; no ELISA figure is given for B7
T1 construct: also called pepD1-C7; pepD1-C20; not shown: phage gene III protein of the Ph.D.-C7C library phage (New England Biolabs)
T1 peptide: CYGTKPWMC

amyloid β peptide 1-42 = target: T2, amyloid β peptide 1-42 (UniProt P05067 672-713); assay: precipitation of Aβ oligomer and fibers with streptavidin-magnet beads, Western blot with anti-Aβ antibodies
T2 construct: domain: Aβ1-42; In the precipitation experiment it stood as oligomer and fibers formed 1.5 hours after dissolution at 40 µM; also called Aβ1-42; Aβ oligomer

[2] = target: T3, pepB6-L10 peptide phage clone (not fully specified (C-terminus)); assay: phage ELISA, scFv coated on plate, phage detected with anti-M13 antibody
T3 construct: not shown: phage gene III protein of the Ph.D.-12 library phage (New England Biolabs)
T3 peptide: TSPILDVLTPPR

[3] = target: T4, pepB6-L1 peptide phage clone (not fully specified (C-terminus)); assay: as above
T4 construct: not shown: phage gene III protein of the Ph.D.-12 library phage (New England Biolabs)
T4 peptide: GMLDIFAPIRHV

[4] = target: T1, pepB7-C15 (pepD1-C5, C7, C20) peptide …; assay: as above
[5] = target: T5, pepD1-C2, C13 peptide phage clone; assay: as above
T5 construct: also called pepD1-C13; not shown: phage gene III protein of the Ph.D.-C7C library phage (New England Biolabs)
T5 peptide: CYGTEPWMC

[6] = target: T6, pepD1-L6 peptide phage clone; assay: as above
T6 construct: not shown: phage gene III protein of the Ph.D.-12 library phage (New England Biolabs)
T6 peptide: SSIIDILLPPIY

[7] = target: T7, pepD1-C11 peptide phage clone; assay: as above
T7 construct: not shown: phage gene III protein of the Ph.D.-C7C library phage (New England Biolabs)
T7 peptide: CFGHKPWMC

[8] = target: T8, pepD1-L7 peptide phage clone; assay: as above
T8 construct: not shown: phage gene III protein of the Ph.D.-12 library phage (New England Biolabs)
T8 peptide: SILDILSPRLAE

[9] = target: T9, pepD1-L20 peptide phage clone; assay: as above
T9 construct: not shown: phage gene III protein of the Ph.D.-12 library phage (New England Biolabs)
T9 peptide: NPLDFYAPSILP

[10] = target: T10, pepD1-L13 peptide phage clone; assay: as above
T10 construct: not shown: phage gene III protein of the Ph.D.-12 library phage (New England Biolabs)
T10 peptide: GNTLLDTLVPLI

[11] = target: T11, pepD1-L5, L9 peptide phage clone; assay: as above
T11 construct: also called pepD1-L9; not shown: phage gene III protein of the Ph.D.-12 library phage (New England Biolabs)
T11 peptide: GSPFLDLLAPAA

[12] = target: T12, pepD1-C3 peptide phage clone; assay: as above
T12 construct: not shown: phage gene III protein of the Ph.D.-C7C library phage (New England Biolabs)
T12 peptide: CQGHLPWMC

[13] = target: T13, pepD1-C10 peptide phage clone; assay: as above
T13 construct: not shown: phage gene III protein of the Ph.D.-C7C library phage (New England Biolabs)
T13 peptide: CFGSLPWMC

[14] = target: T14, pepD1-C18 peptide phage clone; assay: as above
T14 construct: not shown: phage gene III protein of the Ph.D.-C7C library phage (New England Biolabs)
T14 peptide: CFGHEPWMC

[15] = target: T15, pepD1-C8 peptide phage clone; assay: as above
T15 construct: not shown: phage gene III protein of the Ph.D.-C7C library phage (New England Biolabs)
T15 peptide: CFGRLPWMC

T2 sequence (P05067 672-713 limits assumed): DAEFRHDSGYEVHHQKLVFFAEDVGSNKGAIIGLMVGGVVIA

B1: B7 scFv (clone B7 described in WO 2005/105998) (scFv, V domains shown)
VH: QVQLVQSGGGLVQPGGSQRLSCAASGFGFSNYAVSWVRQAPGTGLEWVAGVNGGGQNTFYADSVKGRFTISRDNSKKTVYLQMNSLRVEDTAIYYCAKDGRFRNRRPDGFDTWGQGTLVTVSS
VL: SSELTQDPNVSVALGQTVRITCQGDTLRNNFPTWYQQKPGQAPVLVFYGKDNRPSGIPDRFSGSRSGTTASLVITGAQAQDEADYYCNSRDSGGHHLVFGGGTKLTVLG
notes: Human single-chain antibody
Does B1 bind [1]?
Result: binds

Does GSGGGSCGYWRSEWGLCG (also called unrelated peptide) [unrelated control peptide (GSGGGSCGYWRSEWGLCG)] bind (amyloid β peptide 1-42)?
Result: no binding

B2: B6 scFv (clone B6 described in WO 2005/105998) (scFv, V domains shown)
VH: QVQLVQSGGGVVQPGGSLRLSCAASGFTFSRYAMSWVRQAPGKGLEWVSAMSGSGDTTYYADSVKGRFTISRDNSKKTVYLQMNRLRVEDTAIYYCAKDGRFRNRRSDGFDTWGQGTLVTVSS
VL: SSELTQDPAVSVALGQTVRITCQGDSLRSYYASWYQQKPGQAPVLVIYGKDNRPSGIPDRFSGSSSGNAASLTITGAQAEDEADYYCNSRDTSGNHLVFGGGTKVTVLG
notes: Human single-chain antibody
Does B2 bind [2]?
Result: binds

Does B2 bind [3]?
Result: binds

B3: D1 scFv (clone D1 described in WO 2005/105998) (scFv, V domains shown)
VH: QVTLKESGGDLVKPGGSLRLSCAASGFTFRKYYMAWIRQAPGKGPEWLSTISNSGDIIDYADSVRGRFSISRDNAQKSLYLQMTSLRPDDSAIYYCAREYFFSFDVWGRGTLVTVSS
VL: B2 VL with V18I, D51N, N52K, F61I, S65R, A69T, T92S, K104Q, V105L
notes: Human single-chain antibody
Does B3 bind [4]?
Result: binds

Does B3 bind [5]?
Result: binds

Does B3 bind [6]?
Result: binds

Does B3 bind [7]?
Result: binds

Does B3 bind [8]?
Result: binds

Does B3 bind [9]?
Result: binds

Does B3 bind [10]?
Result: binds

Does B3 bind [11]?
Result: binds

Does B3 bind [12]?
Result: binds

Does B3 bind [13]?
Result: binds

Does B3 bind [14]?
Result: binds

Does B3 bind [15]?
Result: binds
